Our source for the amyloid nucleation score values is the supplement of paper PMC12042874.

± gives the uncertainty stated by the source.

The series is described as follows: amyloid nucleation score (Sup35N fusion, yeast selection) (log enrichment); library NNK3; higher = more nucleation; inactive = no reads after selection. In short, it runs like this: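 DiMSum was used to calculate nucleation scores as log enrichment of output over input reads, centred on the mode score of non-aggregating sequences. Sequences with fewer than 100 input reads were not scored. Input and output came from Illumina sequencing of plasmid inserts in psi-negative yeast expressing peptides of 20 random codons fused to Sup35N, induced 24 hours with 100 μM copper sulfate and then grown 7 days at 30°C on medium lacking adenine and uracil.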
Consider LQHFVR, for which the amyloid nucleation score result is “inactive”. For TVNWLL, the amyloid nucleation score entry was “inactive”. On to SLVYACSSEL, for which the amyloid nucleation score result is “inactive”. Consider ACNDVIHVASSRDLMGAHPR, for which the amyloid nucleation score is -0.396 ± 0.87. With TSSETNLAYCSAVRGGLRKQ, the amyloid nucleation score result is “inactive”. For YVGFVARVVRDYNGYQRDTC, the amyloid nucleation score result is “inactive”. As to VNRKEIRHVRLLCPSRGSVA, the amyloid nucleation score is -0.091 ± 0.43.

For the substance DNICIYWALDGIYECSRHSR, the amyloid nucleation score result is “inactive”.

Take GSGCVIYIL: the amyloid nucleation score result was “inactive”.

With QFKLHCYRGMVVNHSLMCDT, the amyloid nucleation score result was “inactive”.

For the substance QLWNWVFYYISNILGKGMHL, the amyloid nucleation score entry was “inactive”. Take MPYSFIMTVTYSLQYTQWSL: the amyloid nucleation score is -0.074 ± 0.51. Consider LNCATFHYLTAVILMEYCRT, for which the amyloid nucleation score entry is “inactive”.

Regarding SLRFISSLWV, the amyloid nucleation score entry is “inactive”. On to LSYNTVDVWPLAFNFWWMIS, for which the amyloid nucleation score was found to be 0.199 ± 0.44. Take ESFESVYR: the amyloid nucleation score entry was “inactive”.

The substance FVTYCVRQETV came in with an amyloid nucleation score of 0.578 ± 0.15. Take SWSRYNDC: the amyloid nucleation score entry was “inactive”. For IISQIRCFNLPEVPSSTMCL, the amyloid nucleation score result is “inactive”. In the case of GAVWFIRRRPKDRIRRVSLW it was “inactive”. Turning to ELYMQMCYRRIGCV, the amyloid nucleation score entry was “inactive”.

In turn, YLVTIILI showed an amyloid nucleation score of 1.32 ± 0.16. For the substance LQLLRIGHWMLPCCWRILLV, the amyloid nucleation score result is “inactive”. QIFLCTGFCR registered an amyloid nucleation score of 2.69 ± 0.062. In the case of RRYYLRV it was “inactive”. As to RYLPRTSFPTIL, the amyloid nucleation score result is “inactive”.

In the case of MRMNVTIRFVMFNTGLRMYG, the amyloid nucleation score entry was “inactive”. IFVLDASMVMSFYVSVDASS: the amyloid nucleation score worked out at 0.989 ± 0.093. For the substance DGKFRSNWSYGVLWMLVFLY, the amyloid nucleation score entry was “inactive”. As to CSLRPNSERTSVIYNALHVN, the amyloid nucleation score result is “inactive”.

For SVLLISVEYVAYEFLSHSVR, the amyloid nucleation score was 2.05 ± 0.097.

FSLRNICSGLWILSVIAFPI: the amyloid nucleation score entry is “inactive”.

Consider PDLTKNSWYLYSYRLV, for which the amyloid nucleation score result was “inactive”.

In the case of FGMKTYRLQIGYNITVCHSI, the amyloid nucleation score is -0.603 ± 0.58. Substance NENHGCYMGRVFQCGIYEYV had an amyloid nucleation score of 1.44 ± 0.13. As for RVHFVYIRWFYVRRDGWFSG, the amyloid nucleation score entry was “inactive”. For the substance YIISRFYMAVWGDKPLYTGL, the amyloid nucleation score entry is “inactive”. For the substance SSGLMLWFDWLLVWRGCRLR, the amyloid nucleation score result was “inactive”. On to CRYYNSC, for which the amyloid nucleation score result is “inactive”. With LCNSVRNGNYYTGYGVTLYV, the amyloid nucleation score entry was “inactive”.

With CCNDWR, the amyloid nucleation score entry is “inactive”. On to VSVYRRLGHIVLVIVITLAS, for which the amyloid nucleation score entry is “inactive”. Then LWDALDKDSESVIDMGQNEG, with “inactive”; and SFGLWNLRTYTAVIASSWEL, with “inactive”.

For MYRLIVYT, the amyloid nucleation score result was “inactive”. On to VEQMLVFDTPLSYLVKQVKF, for which the amyloid nucleation score entry was “inactive”. Then LKLYDGSFAFLKCTSFMFNG, with 1.19 ± 0.17; and PTLCNRGLACDEHSHR, with “inactive”. Turning to RAVTSWYVVRWFIRYNTSNA, the amyloid nucleation score entry was “inactive”. As for GNELQSEFLDFLTCRERGKG, the amyloid nucleation score entry was “inactive”. For LHKTTMYFRKISLRRFEMLL, the amyloid nucleation score result is “inactive”.

Regarding NQSGALVG, the amyloid nucleation score result was “inactive”.

GGWIY: the amyloid nucleation score entry was “inactive”. WSFVPRGIVVSRRLSVYTRT: the amyloid nucleation score result is “inactive”. Turning to RMRLSWVMHSV, the amyloid nucleation score result is “inactive”. As to NAHCMVLMHRAKVWIFMINK, the amyloid nucleation score entry is “inactive”. In the case of DEANRYPRYLYILERLAYRK it was “inactive”. As for PMMVWFSNFLYVASMGPDSF, the amyloid nucleation score entry was “inactive”. With TRSCDRYRALYSLLFTTGSM, the amyloid nucleation score result was “inactive”. Then RQNVWTLVPLVKFRLSNTQT, with “inactive”. Then GYNCALWDVGCLHVFRPYAN, with “inactive”. With YFYWTCSDKRVTIEDVVPLH, the amyloid nucleation score entry was “inactive”. For FVQGYSFWYWVETYMFIRFV, the amyloid nucleation score entry was “inactive”. As to VFAARAKRY, the amyloid nucleation score entry was “inactive”.

Turning to LFLFQFRYGSWGFRGYMVGR, the amyloid nucleation score was 0.837 ± 0.27. As for RSVLLKVHTWITKSCFSTGL, the amyloid nucleation score entry was “inactive”. In the case of RLLDGMTSVLC it was “inactive”; in that of LVYNTDQSTRYAMTDYDADL, “inactive”.

Consider VGSQEANLAVGI, for which the amyloid nucleation score entry is “inactive”.

For the substance YWMMY, the amyloid nucleation score result is “inactive”.

For PFGVFHSSATTKRHFYMVGV, the amyloid nucleation score result was “inactive”. In the case of LGNTCKIDWRISYHMTPSDI, the amyloid nucleation score result was “inactive”. As for DFVRVEMNYLDENDGGCYL, the amyloid nucleation score entry is “inactive”.

As for ENWTDGM, the amyloid nucleation score entry is “inactive”. Then HSRGENR, with “inactive”; and IYTSFVTMERALSMFSPLFH, with “inactive”; and WFFFDIAWRSPTIRRWTSSM, with “inactive”. Then ILQTLQDVRVRGMDISTASL, with “inactive”. VKMSWHHHCLFLICLCTSYE came in with an amyloid nucleation score of 0.606 ± 0.13.

In the case of DLHMIATMGECMHCEMHL, the amyloid nucleation score entry is “inactive”.

QTVKHIKICGVCWVSMLMF registered an amyloid nucleation score of 2.07 ± 0.086. On to SMHRQVPFPMKKHLEHLSMT, for which the amyloid nucleation score entry is “inactive”.

With FVVGHENNFLKFANSLSRL, the amyloid nucleation score result is “inactive”. Consider ITGHRNVLIEHMVTTP, for which the amyloid nucleation score entry is “inactive”. Then NIMVVYPFFYGFKHNWLESI, with “inactive”; and RGGRYDFMCDTCSLIVFASV, with -0.645 ± 1.1.

Turning to ITFVYSS, the amyloid nucleation score entry was “inactive”. In the case of LREKND it was “inactive”; in that of LAVFKFDRSLIWDTTVRVFH, “inactive”; in that of LDLIRY, “inactive”.

GELPLRVKVKSFHTDTSLRK had an amyloid nucleation score of 0.614 ± 0.29. With IESSYFNNNRFGRHVVKQVG, the amyloid nucleation score result was “inactive”. AFSFPSERVWVWNFHMRDKE gave an amyloid nucleation score of 3.11 ± 0.058. With ASVACLAFP, the amyloid nucleation score entry was “inactive”. ILSDMTGDHNSINFDMYSGI: the amyloid nucleation score result is “inactive”.

NWQYLNG: the amyloid nucleation score result is “inactive”. Take MNEGQSYYKVVITPELLAAR: the amyloid nucleation score is -0.545 ± 0.96. SFRSPMDIVLLFVMCSVLAR: the amyloid nucleation score entry was “inactive”.

LCNSVAYPDSGTVRLLKREL yielded an amyloid nucleation score of 0.005 ± 0.6. Regarding NSNSYLGTNFILNQYVLCID, the amyloid nucleation score entry was “inactive”. For FIVVDMDSYRAVDGARVFVE, the amyloid nucleation score entry is “inactive”.

For RTLLGEEWLCSVEMEVVGGQ, the amyloid nucleation score result is “inactive”. Take VFVAMNVFMVWICRLQGSLT: the amyloid nucleation score turned out to be 0.508 ± 0.33. For the substance AIVESKPYLRSVL, the amyloid nucleation score result was “inactive”. GGSCTDSVVIEGI gave an amyloid nucleation score of 0.252 ± 0.24. Then NVLFLVNY, with 2.42 ± 0.067; and VDKDTE, with “inactive”; and YKSPFTGNCLYTVVIKDINL, with 1.55 ± 0.085.

As for CAHVSFKLVFSINWWSNLLN, the amyloid nucleation score result was “inactive”. Take MYPYAITVTGMFLLVPSCLD: the amyloid nucleation score entry was “inactive”.

As for YLQFIDENS, the amyloid nucleation score entry was “inactive”.

ELRCFTQIGLGSCYRFIGYI: the amyloid nucleation score amounted to 0.371 ± 0.74. Consider IFLKHIPRHSSSKTMTANCP, for which the amyloid nucleation score entry was “inactive”. For the substance AFTGTDSKF, the amyloid nucleation score result is “inactive”. Regarding ERKVCAG, the amyloid nucleation score result is “inactive”. For the substance YVDLAGLMLMADMA, the amyloid nucleation score result is “inactive”. FYMYLTSVCA: the amyloid nucleation score entry was “inactive”. For the substance GQWLSDTR, the amyloid nucleation score entry was “inactive”. Consider RISYMSGDYRPSKCACVYAE, for which the amyloid nucleation score result is “inactive”. In the case of TGCSSF, the amyloid nucleation score entry was “inactive”. VLDKVKWTLLCNGRRAVAPW returned an amyloid nucleation score of -0.089 ± 1.4. Take IFGSAFFRYYLCITQFCEYS: the amyloid nucleation score result was “inactive”.

On to GDVRLFTCRMLGILFFSIT, for which the amyloid nucleation score result is “inactive”.

Regarding VTNPLGPFMDRF, the amyloid nucleation score result is “inactive”. Turning to IVADLHIHCEPRFSSHLTYE, the amyloid nucleation score entry is “inactive”. The substance TRNSYCTFRGGIIFCL returned an amyloid nucleation score of 1.25 ± 0.09. With CYVNYWESDMLRTAVPNCTF, the amyloid nucleation score result is “inactive”. Substance SFRGTSARYFMLVGVLGIFV gave an amyloid nucleation score of -0.2 ± 1.2. In turn, WWFLGGRSRGDRGILMVDVA yielded an amyloid nucleation score of 0.214 ± 0.53. AVMVRRYFVDWCRQEVTFHV showed an amyloid nucleation score of 0.088 ± 0.62. Then PLDVNGYMNVTSGRRMCARR, with “inactive”. SYSNDHAFVSRVAGCNIC registered an amyloid nucleation score of 1.53 ± 0.1.
